Experimental data from publication PMC9812318, “A dimer between monomers and hexamers—Oligomeric variations in glucosamine-6-phosphate deaminase family” (PLOS ONE, 2023).

What was measured:
[1] = target: the molecule itself; test: crystal structure; PmNagB crystals, P21, 4 monomers in the asymmetric unit, 2.3 Å; 100 mM sodium cacodylate/HCl pH 6.5, 200 mM MgCl2, 20% PEG 1000, 18°C; analysis of crystal packing
[2] = target: the molecule itself; test: crystal structure; HiNagB crystals, P21, 12 monomers in the asymmetric unit, 3.0 Å; 2% Tacsimate pH 5.0, 0.1 M sodium citrate pH 5.6, 16% PEG 3350, 0.1 M strontium chloride, 18°C

B1: Glucosamine-6-phosphate deaminase (NagB) from Pasteurella multocida (enzyme)
chain: not shown
notes: Glucosamine-6-phosphate deaminase (NagB), Pasteurella multocida; Made from a Gateway recombinant plasmid; also called PmNagB; Pm-NagB; source: E. coli BL21(DE3)*, purified (Ni-NTA, SEC)
- stoichiometry N [1]: 2

B2: Glucosamine-6-phosphate deaminase (NagB) from Haemophilus influenzae (enzyme)
chain: not shown
notes: Glucosamine-6-phosphate deaminase (NagB), Haemophilus influenzae; Made from a Gateway recombinant plasmid; also called HiNagB; Hi-NagB; source: E. coli BL21(DE3)*, purified (Ni-NTA, SEC)
- stoichiometry N [2]: 6
